Here are results for 7 proteins from patent publication US20150210998.

In data set [1] the target is UbcH7˜125I-ubiquitin thioester, P68036.
Data set [2] concerns the target Q05086.

Changes are numbered by the printed parent chain.

UbcH7˜125I-ubiquitin thioester, P68036, sequence (P68036 whole entry, looked up): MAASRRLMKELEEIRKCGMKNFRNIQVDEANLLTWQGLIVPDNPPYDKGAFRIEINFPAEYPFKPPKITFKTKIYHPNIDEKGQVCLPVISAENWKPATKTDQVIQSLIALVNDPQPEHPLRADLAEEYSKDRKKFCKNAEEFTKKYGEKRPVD

B1: E6AP ligase Hect domain (GST removed by thrombin) (protein)
chain: INEPLNEVLEMDKDYTFFKVETENKFSFMTCPFILNAVTKNLGLYYDNRIRMYSERRITVLYSLVQGQQLNPYLRLKVRRDHIIDDALVRLEMIAMENPADLKKQLYVEFEGEQGVDEGGVSKEFFQLVVEEIFNPDIGMFTYDESTKLFWFNPSSFETEGQFTLIGIVLGLAIYNNCILDVHFPMVVYRKLMGKKGTFRDLGDSHPVLYQSLKDLLEYEGNVEDDMMITFQISQTDLFGNPMMYDLKENGDKIPITNENRKEFVNLYSDYILNKSVEKQFKAFRRGFHMVTNESPLKYLFRPEEIELLICGSRNLDFQALEETTEYDGGYTRDSVLIREFWEIVHSFTDEQKRLFLQFTTGTDRAPVGGLGKLKMIIAKNGPDTERLPTSHTCFNVLLLPEY
With B1, the Km- in data set [1] is 0.091 µM.

B2: GST-E6AP ligase Hect domain (protein)
chain: B1 chain
For the protein B2, the Km- in data set [1] turned out to be 0.089 µM.

B3: GST-E6APK688A (protein)
chain: MATACKRSGEPQSDDIEASRMKRAAAKHLIERYYHQLTEGCGNEACTNEFCASCPTFLRMDNNAAAIKALELYKINAKLCDPHPSKKGASSAYLENSKGAPNNSCSEIKMNKKGARIDFKDVTYLTEEKVYEILELCREREDYSPLIRVIGRVFSSAEALVQSFRKVKQHTKEELKSLQAKDEDKDEDEKEKAACSAAAMEEDSEASSSRIGDSSQGDNNLQKLGPDDVSVDIDAIRRVYTRLLSNEKIETAFLNALVYLSPNVECDLTYHNVYSRDPNYLNLFIIVMENRNLHSPEYLEMALPLFCKAMSKLPLAAQGKLIRLWSKYNADQIRRMMETFQQLITYKVISNEFNSRNLVNDDDAIVAASKCLKMVYYANVVGGEVDTNHNEEDDEEPIPESSELTLQELLGEERRNKKGPRVDPLETELGVKTLDCRKPLIPFEEFINEPLNEVLEMDKDYTFFKVETENKFSFMTCPFILNAVTKNLGLYYDNRIRMYSERRITVLYSLVQGQQLNPYLRLKVRRDHIIDDALVRLEMIAMENPADLKKQLYVEFEGEQGVDEGGVSKEFFQLVVEEIFNPDIGMFTYDESTKLFWFNPSSFETEGQFTLIGIVLGLAIYNNCILDVHFPMVVYRKLMGKKGTFRDLGDSHPVLYQSLKDLLEYEGNVEDDMMITFQISQTDLFGNPMMYDLKENGDKIPITNENRAEFVNLYSDYILNKSVEKQFKAFRRGFHMVTNESPLKYLFRPEEIELLICGSRNLDFQALEETTEYDGGYTRDSVLIREFWEIVHSFTDEQKRLFLQFTTGTDRAPVGGLGKLKMIIAKNGPDTERLPTSHTCFNVLLLPEYSSKEKLKERLLKAITYAKGFGML
With B3, the Km- in data set [1] was found to be 0.039 µM.

B4: GST-E6APY533A (protein)
chain: B3 chain with Y553A, A708K
With B4, the Km- in data set [1] came out at 0.04 µM. In addition, the “fold decrease in kcat of polyubiquitin chain formation” value (shortened to “fold decrease in kcat”) in data set [2] is “decreased kcat 10-fold”.

B5: GST-E6APF727D (protein)
chain: B3 chain with A708K, F727D
Consider B5, for which the Km- in data set [1] came to 0.072 µM. Also, the “fold decrease in kcat” value in data set [2] is recorded as 62-fold decrease in kcat.

B6: GST-E6APD543A (protein)
chain: B3 chain with D563A, A708K
For B6, in data set [1], the Km- was 0.54 µM.

B7: GST-E6APR626A (protein)
chain: B3 chain with R646A, A708K
Consider B7, for which, in data set [1], the Km- came to 0.15 µM. Moreover, the “fold decrease in kcat” value in data set [2] is given as “decreased kcat 155-fold”.
